Consider two molecules from patent publication US20200317755A1 (HUMABS BIOMED, published 2020).

Assay [1] has as its target T1, ZIKV EDIII (Zika virus, UniProt A0A024B7W1 599-693).
T1 construct: also called domain III of ZIKV E protein; DIII ZI
The experiment in a line: ELISA. For orientation: ELISA stands for enzyme-linked immunosorbent assay.

For assay [2], the target named is T2, ZIKV E protein (Zika virus, UniProt Q32ZE1 291-694).
T2 construct: domain: envelope protein (E protein); also called Zika virus envelope protein; recombinant ZIKV E protein
The experiment in a line: ELISA.

A further assay addresses T3, DENV3 VLP (Dengue virus 3).
T3 construct: virus-like particle; also called DENV3 virus-like particle
Nature of the assay: ELISA.

The next assay has as its target T4, DENV4 VLP (Dengue virus 4).
T4 construct: virus-like particle; also called DENV4 virus-like particle
Nature of the assay: ELISA.

The next assay has as its target DENV3 E protein (Dengue virus serotype 3). Nature of the assay: ELISA.
For a further assay, the target named is DENV4 E protein (Dengue virus serotype 4). The experiment in a line: ELISA.
Assay [3] deals with T1, ZIKV EDIII. The experiment in a line: ELISA. The source holds these as a separate data set.
Assay [4] deals with T5, DENV1 E protein (Dengue virus serotype 1).
T5 construct: also called E protein of dengue virus serotype 1
Nature of the assay: ELISA.

The target of another assay is DENV2 E protein (Dengue virus serotype 2). Nature of the assay: ELISA.
The target in the next assay is T6, DENV1 VLP (Dengue virus 1).
T6 construct: virus-like particle; also called DENV1 virus-like particle
The experiment in a line: ELISA.

In assay [5] the target is T2, ZIKV E protein. Nature of the assay: ELISA. This is another data set of the same source.
The target in the next assay is T7, DENV2 VLP (Dengue virus 2).
T7 construct: virus-like particle; also called DENV2 virus-like particle
The experiment in a line: ELISA.

Assay [6] deals with T5, DENV1 E protein. The experiment in a line: ELISA. This is another data set of the same source.
The target of assay [7] is T2, ZIKV E protein. The experiment in a line: ELISA. The source holds these as a separate data set.
Assay [8] concerns the target E protein of ZIKV strain H/PF/2013 (on infectious virus) (Zika virus). The experiment in a line: cell-based or functional assay.
The target of the next assay is T8, DENV1 (Dengue virus 1).
T8 chain: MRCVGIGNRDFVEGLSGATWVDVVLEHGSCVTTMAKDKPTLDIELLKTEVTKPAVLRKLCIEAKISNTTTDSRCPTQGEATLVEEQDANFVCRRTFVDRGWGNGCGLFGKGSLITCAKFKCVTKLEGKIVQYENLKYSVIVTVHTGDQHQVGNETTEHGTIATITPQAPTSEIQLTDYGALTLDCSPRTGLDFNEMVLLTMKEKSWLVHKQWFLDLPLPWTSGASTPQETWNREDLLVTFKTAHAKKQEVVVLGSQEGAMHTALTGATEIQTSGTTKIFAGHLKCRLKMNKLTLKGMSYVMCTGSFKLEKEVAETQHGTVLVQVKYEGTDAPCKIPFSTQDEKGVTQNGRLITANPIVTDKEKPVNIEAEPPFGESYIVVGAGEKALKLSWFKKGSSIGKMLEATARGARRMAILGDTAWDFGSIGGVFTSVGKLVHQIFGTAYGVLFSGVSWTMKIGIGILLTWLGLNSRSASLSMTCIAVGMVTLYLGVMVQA
Nature of the assay: cell-based or functional assay.

Like-named read-outs stand apart in the source and are kept apart here.

For orientation: EC50 means the concentration needed to bring the measured effect to its halfway point.

B1: ZKA230-Fab (Fab, V domains shown)
VH: QVQLQESGPGLVKPSETLSLTCAVSGGSISSDYWSWIRQPPGKGLEWIGYIYYSGSTNYNPSLKSRVTISVDTSKNHFSLKLNSVTAADTAVYYCARRRKYDSLWGSFAFDIWGQGTMVTVSS
VL: QSVLTQPPSASGTPGQRVTISCSGSSSNIGGNYVYWYQQLPGTAPKLLICINDHRPSGVPDRFSGSKSGTSASLAISGLQSEDEADYYCATWDDSLGGLVFGGGTKLTVL
notes: also called Fab of ZKA230
As to B1, the binding result in the assay with ZIKV EDIII [1] and with ZIKV E protein [2] was “no binding (tested: 10 nM)” in each case.

B2: ZKA78 (antibody, V domains shown)
VH: EVQLAESGGGLVQPGGSLTLSCSGSGFTFSNYAMVWARQAPGKGLEYVSGIGRNGDSIYYTDSVKGRFTISRDNSKSMVYLQMSSLRTEDTAVYYCVKDLAIPESYRIEADYWGQGTLVIVSA
VL: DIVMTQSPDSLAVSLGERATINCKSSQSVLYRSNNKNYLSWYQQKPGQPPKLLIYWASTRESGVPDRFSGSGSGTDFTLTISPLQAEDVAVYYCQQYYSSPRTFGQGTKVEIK
notes: also called cross-reactive antibody ZKA78
On to B2, for which the EC50 with DENV3 VLP came to 0.131 µg/mL; with DENV4 VLP, 0.136 µg/mL; with DENV3 E protein it was 0.033 µg/mL; in the assay with DENV4 E protein, 0.385 µg/mL; with DENV1 E protein [4] it was 1.41 µg/mL; in the assay with DENV2 E protein, 0.982 µg/mL. Moreover, the EC50 with DENV1 VLP amounted to 0.158 µg/mL; in the assay with ZIKV E protein [5], 2.76 µg/mL; with DENV2 VLP, 0.083 µg/mL; with DENV1 E protein [6], 1.41 µg/mL; in the assay with ZIKV E protein [7], 2.76 µg/mL. The binding result in the assay with ZIKV EDIII [3] is listed as “no binding”. In addition, the “IC50, ZIKV neut” value in assay [8] was determined as 2.86 µg/mL. Further, the “IC50, DENV1 neut” value with DENV1 is 0.266 µg/mL.
